Assay [1] deals with diet-induced obese (DIO) mice. Kind of assay: Body composition and metabolism in diet-induced obese (DIO) mice. The assay is classed as in vivo. The protocol:
(§1) Experiments were performed to assess the effects of P1229 on body composition and metabolism in diet-induced obese (DIO) mice. DIO mice were purchased from Jackson Laboratories (#380050). Briefly, mice were fed a high-fat diet (HFD, 60% kcal from fat) from 6 weeks of age until 22 weeks of age (total of 16 weeks on the HFD). […] After 3 weeks of treatments, some animals were sacrificed and scanned by EchoMRI […] (FIGS. 11A-F), while others were sacrificed for tissue collection and RNA analysis. Animals were maintained on the HFD throughout the acclimatization and treatment periods. The murine version of bimagrumab used for these experiments comprises the heavy chain amino acid sequence of SEQ ID NO: 376 and the light chain sequence of SEQ ID NO: 377.

The subject of assay [2] is follicle-stimulating hormone (FSH). Kind of assay: FSH production in DIO mice. The assay is classed as in vivo. Particulars: 3 weeks of treatment. The protocol:
as §1
Follicle-stimulating hormone (FSH) is a known biomarker of in vivo target engagement for activin receptor-based traps (See Attie et al. (2013). Muscle Nerve, 47: 416-423). To further validate in vivo target engagement for exemplary agents, FSH production was evaluated in DIO mice, as described above.

Assay [3] deals with DIO mice. Kind of assay: Body composition in high fat diet mice, alone and in combination with incretin mimetics. The format is in vivo.
Protocol: Experiments were performed in vivo to investigate the potential for additive or synergistic effects between exemplary ActRIIB-ECD polypeptide constructs and incretin mimetics.
In assay [4] the target is T1, recombinant human activin A (human, UniProt P08476 311-426).
T1 sequence (looked up): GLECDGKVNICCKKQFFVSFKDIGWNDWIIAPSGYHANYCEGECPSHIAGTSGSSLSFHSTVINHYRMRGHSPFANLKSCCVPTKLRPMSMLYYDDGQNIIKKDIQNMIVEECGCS
Kind of assay: cell-based or functional assay.

Assay [5] addresses T2, activin B (UniProt P09529 293-407).
T2 sequence (looked up): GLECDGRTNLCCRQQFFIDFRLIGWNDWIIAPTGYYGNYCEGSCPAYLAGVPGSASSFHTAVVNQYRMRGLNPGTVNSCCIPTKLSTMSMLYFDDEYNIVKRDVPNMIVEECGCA
Kind of assay: cell-based or functional assay.

For assay [6], the target named is GDF-8 (UniProt O14793 267-375). Kind of assay: cell-based or functional assay.
For assay [7], the target named is GDF-11 (UniProt O95390 299-407). Kind of assay: cell-based or functional assay.
GDF-11, sequence (O95390 299-407 limits assumed): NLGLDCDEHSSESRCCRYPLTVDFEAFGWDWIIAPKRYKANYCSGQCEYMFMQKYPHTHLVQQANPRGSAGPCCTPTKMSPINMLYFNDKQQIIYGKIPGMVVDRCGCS
Assay [8] has as its target T3, BMP-9 (UniProt Q9UK05 320-429).
T3 sequence (looked up): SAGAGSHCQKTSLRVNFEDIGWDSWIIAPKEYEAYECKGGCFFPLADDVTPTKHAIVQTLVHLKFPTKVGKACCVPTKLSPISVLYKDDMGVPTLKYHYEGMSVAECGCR
Kind of assay: cell-based or functional assay.

Assay [9] deals with T4, BMP-10 (UniProt O95393 317-424).
T4 sequence (looked up): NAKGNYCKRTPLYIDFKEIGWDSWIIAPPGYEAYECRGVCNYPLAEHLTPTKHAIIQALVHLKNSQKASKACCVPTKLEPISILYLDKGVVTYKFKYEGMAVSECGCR
Kind of assay: cell-based or functional assay.

Assay [10] has as its target T1, recombinant human activin A. Kind of assay: direct ELISA, activin A coated, anti-human Fc-HRP; co-formulation with semaglutide, D 0. A general note: ELISA stands for enzyme-linked immunosorbent assay.
Protocol: (§2) In each case, the following parameters were assessed: a) monomer content (size exclusion chromatography), b) activin A and GDF-8 neutralization (cell-based assays [CBAs]), c) activin A binding (ELISA), d) GLP-1 receptor binding (ELISA).
(§3) Potency testing by ELISA. […] Blocking buffer (1% BSA, 0.05% tween-20 in PBS, 300 μL/well) was added to each well and the plate was incubated for 1 hour at RT. Starting at 2.5 μg/mL, test agents were diluted in assay diluent (1% BSA, 0.05% tween-20 in PBS, 100 μL/well) and loaded on the plate for 1 h at RT.
For assay [11] the target is unchanged. Kind of assay: direct ELISA, activin A coated, anti-human Fc-HRP; co-formulation with semaglutide, D 7 at 2-8°C.
Protocol: as §2, §3
The target is the same in assay [12]. Kind of assay: direct ELISA, activin A coated, anti-human Fc-HRP; co-formulation with semaglutide, D 28 at 2-8°C.
Protocol: as §2, §3
The target is the same in assay [13]. Kind of assay: direct ELISA, activin A coated, anti-human Fc-HRP; co-formulation with semaglutide, D 7 at room temperature.
Protocol: as §2, §3
Assay [14] shares this target. Kind of assay: direct ELISA, activin A coated, anti-human Fc-HRP; co-formulation with semaglutide, D 28 at room temperature.
Protocol: as §2, §3

B1: P1307: murine version of bimagrumab, an antibody targeting ActRIIB and ActRIIA; heavy chain SEQ ID NO: 376, light chain SEQ ID NO: 377 (antibody)
heavy: MDWTWRILFLVAAATGTHAQVQLVQSGAEVKKPGASVKVSCKASGYTFTSSYINWVRQAPGQGLEWMGTINPVSGSTSYAQKFQGRVTMTRDTSISTAYMELSSLRSEDTAVYYCARGGWFDYWGQGTLVTVSSAKTTAPSVYPLAPVCGDTTGSSVTLGCLVKGYFPEPVTLTWNSGSLSSGVHTFPAVLQSDLYTLSSSVTVTSSTWPSQSITCNVAHPASSTKVDKKIEPRGPTIKPCPPCKCPAPNAAGGPSVFIFPPKIKDVLMISLSPIVTCVVVDVSEDDPDVQISWFVNNVEVHTAQTQTHREDYNSTLRVVSALPIQHQDWMSGKEFKCKVNNKDLPAPIERTISKPKGSVRAPQVYVLPPPEEEMTKKQVTLTCMVTDFMPEDIYVEWTNNGKTELNYKNTEPVLDSDGSYFMYSKLRVEKKNWVERNSYSCSVVHEGLHNHHTTKSFSRTPGK
light: MVLQTQVFISLLLWISGAYGDIALTQPASVSGSPGQSITISCTGTSSDVGSYNYVNWYQQHPGKAPKLMIYGVSKRPSGVSNRFSGSKSGNTASLTISGLQAEDEADYYCGTFAGGSYYGVFGGGTKLTVLGQPKSTPTLTVFPPSSEELKENKATLVCLISNFSPSGVTVAWKANGTPITQGVDTSNPTKEGNKFMASSFLHLTSDQWRSHNSFTCQVTHEGDTVEKSLSPAECL
In the case of B1, in [1], the “hepatic Ahsg expression” value is reported as “reduced Ahsg expression”, the “hepatic Fgf21 expression” value is on record as “reduced” and the “hepatic Inhbe expression” value is listed as “significantly decreased Inhbe expression”. In assay [1] (3 weeks), the “Mss51 gene expression in gastrocnemius muscle” value is given as “reduced Mss51 gene expression”. Besides, in assay [1] (3 weeks s.c., P75, P1229 25 mg/kg twice weekly, P1373 5, 20, 50 mg/kg twice weekly, P1307 20 mg/kg weekly), the “fat mass and lean mass (EchoMRI)” value is “promoted lean mass gain but less fat loss”. Also, the FSH production result in assay [2] is given as “significant decreases in FSH production”. In addition, the “Body weight (% change from baseline)” value in assay [3] (DIO mice, 21 days s.c., P1307 20 mg/kg weekly, P1229 40 mg/kg twice weekly, semaglutide 40 μg/kg daily, tirzepatide 45 μg/kg daily, alone or combined) is on record as “+5.4%”. Further, the “visceral, epididymal, pericardial, peri-renal, and retroperitoneal white adipose tissue weights” value in [3] (DIO mice, D21) is “not significantly affected”. Besides, the “gastrocnemius and tibialis anterior weights” value in assay [3] (DIO mice, D21, P1229 with or without caloric restriction) was “significantly increased”. Besides, in assay [3] (as E44, NMR), the “Fat mass (% change from baseline)” value is reported as −5.7%, the “Lean mass (% change from baseline)” value is “+12.3%” and the “Lean mass/fat mass ratio” value worked out at 1.4.

B2: P1372 (Fc fusion)
chain: ETRECIYYNANWELERTNQSGLERCEGEQDKRWHCYASWRNSSGTIELVKKGCWLDDFNCYDRQECVATEENPQVYFCCCEGNFCNERFTHLPEAGGPEVTYEPPPTGGGGSGGGGSGGGGTHTCPPCPAPELLGGPSVFLFPPKPKDTLYITREPEVTCVVVDVSHEDPEVKFNWYVDGVEVHNAKTKPREEQYNSTYRVVSVLTVLHQDWLNGKEYKCKVSNKALPAPIEKTISKAKGQPREPQVYTLPPSRDELTKNQVSLTCLVKGFYPSDIAVEWESNGQPENNYKTTPPVLDSDGSFFLYSKLTVDKSRWQQGNVFSCSVMHEALHNHYTQKSLSLSPG
notes: also tested in co-formulation with semaglutide, tirzepatide or retatrutide; also called ActRIIB ligand trap P1372
Regarding B2, the “Activin A IC50; TGFβ-reporter HEK293 cells” value in assay [4] stood at 0.56 nM. For the same molecule, in assay [5], the “Activin B IC50; TGFβ-reporter HEK293 cells” value was found to be 2 nM. Also, the “GDF-8 IC50; TGFβ-reporter HEK293 cells” value in [6] stood at 0.18 nM. Besides, the “GDF-11 IC50; TGFβ-reporter HEK293 cells” value in assay [7] worked out at 0.53 nM. Also, the “BMP-9 IC50; BMP-reporter HepG2 cells” value in [8] is more than 1000 nM. The “BMP-10 IC50; BMP-reporter HepG2 cells” value in [9] is more than 100 nM. In addition, the “ELISA potency fold-change vs P1372 alone (ref = 1)” value in assay [10] turned out to be 0.98 fold; in assay [11] it was 0.85 fold; in [12], 1.3 fold; in assay [13], 1.4 fold; in assay [14], 0.79 fold.

The values above are taken from US20260193317A1, “COMBINATION THERAPY WITH ACTRIIB RECEPTOR VARIANTS AND GLP-1 AGONISTS” (35PHARMA Inc., priority 2023, published 2026).
